Three molecules from PMC8677511 can be followed below.

Chain of TDP-43 recombinant (rTDP-43) (Q13148 whole entry): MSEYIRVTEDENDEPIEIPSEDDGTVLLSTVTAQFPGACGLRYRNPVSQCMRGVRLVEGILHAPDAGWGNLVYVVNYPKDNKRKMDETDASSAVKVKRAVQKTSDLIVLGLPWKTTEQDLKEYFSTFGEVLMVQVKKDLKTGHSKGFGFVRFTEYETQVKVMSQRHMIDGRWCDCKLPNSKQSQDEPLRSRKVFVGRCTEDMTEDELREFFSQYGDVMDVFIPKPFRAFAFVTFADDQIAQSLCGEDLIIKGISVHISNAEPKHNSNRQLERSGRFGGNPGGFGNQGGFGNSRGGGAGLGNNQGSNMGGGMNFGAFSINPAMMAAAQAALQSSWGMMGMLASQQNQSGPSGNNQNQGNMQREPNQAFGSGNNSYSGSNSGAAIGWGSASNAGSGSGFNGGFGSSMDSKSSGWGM

This series has as its target TDP-43 recombinant (rTDP-43) (UniProt Q13148 1-414). Put plainly: pull-down.
As to ACACACACACACACACACACACAC (ssRNA) [(AC)12], the binding result is on record as “no binding”.

With UUUUUUGUGUGUUAAUGGUGUGUG (ssRNA) [G3BP1 3' UTR probe (nt334-358)], the binding result is given as “binds”.

On to UGUGUGUGUGUGCGCGUGUGCGUGUG (ssRNA) [GRN (nt262-288) probe], for which the binding result is recorded as “binds”.
